Experiment: soluble on expression in E. coli; label from the status in PepcDB or PDB records

Row | Sequence | soluble on expression in E. coli
1 | MSLNDILNEFIDKYFPLSNEPLLPDFKDLNYPENLPTLVIDLNYVIAKLEYDRKTGWRVLKRPYADRFFKELSSFYEIVIWSDDNFPVAQEVISKWGIPAIGCLHRDQCSKKKKSYVKDLKRLGRNLDRVVIIDHDAKAFMLQPENGILIKEFHGDLNDKEMLCLIDLLKSFAISTHDISQFLKKHGGGDYNIGKRYLQQKEGHHHHHH | soluble
2 | MSLVERVILIVLDSVGAGEMPDADKYGDKGSDTIGNISKAVGGLKLPDMVKMGLGNISGIKGVDKVQYPIGAFGKLKEMSKGKDTVTGHWEMSGVILEEPLNTYPNGFPKDIIDEFEKKIGRKVIGNKVASGTEIIKELGDEHIKTGCPIVYTSADSVFQVAAHEEIIPLDELYKICKVAREMLVDDRTVGRVIARPFVGKNSNYTRTSNRRDFALDPFNKTMLEYIKENKSNVMCVGKIEDIFNKKGVTEAVHIKNNMDGVDKTLEYMKTDKKGLIFTNLVDFDMLYGHRNDPKGYAKALEEFDGRINEIKTNMKDYDVLMITADHGCDPTTESTDHSREYIPFIAYGKDIKGGADIKIRDSFSDIGKTILDLLQVENNLVGKSFKDIIMKEGHHHHHH | not soluble
3 | MKTTTQELKQYITRLFQLSNNETWECEALEEAAENILPERFINNSLLAHLTLNTYTYYNDELHELSIYPFLMYANDQLISIGYLDHFDMDFLYLTDTKNTLIDERHLLKQGGNHHELEHHHHHH | soluble
4 | MSLTSRVSGVISTDEIIVILSVFVRYDVEQPSKLDRVRADYNVHYWSQGFFGIDDQGEVYVSPRKDKAHQTQLSSIVKQLEARDLNLPVLVRFPQILHQRVHNICDAFNQAIEEYDYPNKYLLVYPIKVNQQKEVVDEILASQAELEHKQLGLEAGSKPELLAVLAMAQQASSVIVCNGYKDREYIRLALIGEKLGHKVFIVLEKLSELDLVLKEAKSLGVKPRLGLRIRLASQGAGKWQSSGGEKSKFGLAASQVLTVINRLKAENQLEALQLVHFHLGSQMANIRDVRNGVNEAVRFYCELRELGAHIDFFDVGGGLAVDYDGTRSQSSNSMNYGLHEYARNIVSTVSDVCNLYGQPRPVIISESGRSITAHHAVLITNVIGTEAYSPEEIPAPGADAPMLLKNMWRGFEEVQHGTDDRALIEIYNDTQSDLSEAHSQFATGVLNLEHRAWAEQLSLRIYHELRQKMSNKNRFHRPILDELQERLADKFFVNFSLFQSLPDAWGIDQVFPVLPLSGLEEMNDRRAVMLDITCDSDGAVEQYVEGQGIESTLPVPAWTSDKPYLMGFFLVGAYQEILGDMHNLFGDTHSAVVNINDNGESEIAFINEGDTVEDMMRYVHIDVDKIRTNYRQLVSQRVAKEEQETVLAELELGLSGYTYLEDFEGHHHHHH | soluble
5 | MNSRQQSILQMVVDKGQMSVAELAKITGVSEVTIRQDLNTLEKQSYLRRAHGFAVSLESDDVETRMMTNYTLKRRLAEFAASLVSPGESVFIENGSSNALLARTLAEQKDVTIITVSSYIAHLLKETPCEVILLGGIYQKKSESMVGPLTRQFIHQVHFSKAFIGIDGWQADTGFTGRDMMRSDVVNAVLEKGSEAIVLTDSSKFGCVHPYPLGPLSRFHRVITDSKISASDQMQLEHAGLLVNVIGSSV | not soluble
6 | MGSDKIHHHHHHMDTLFKALSDPARRAILDSLRARDGQSLTDLEPQLDMTRFGVMKHLKLLEDAGLIVTKRQGRFKYHYLNPMPLQEMLDRWVAPFLQPQARHLSDLKAKLERSHTMGKPDFMMQTFIRCTQDALWDALTKADQMAAYHFMCNEVRGNASVGNVTEFVLPDGNPMLRQVTTELDPKSRIAATFEPMFMGPDAPASHMVYLIEPQGETCKLTIEHYDMAPGQEGFAEGWARLASSLKSYLETGKAMKGAA | not soluble
7 | MNIISEHGFRIDGRRPAQIRNINTRLGLNRNAEGSCYLEHGNTKVLCAVYGPYEGKSSKRIEDKCAIVCQYSATKFSGLERKNRTRGDRKSTEISRLLEKAFESVILTEAFPRSQLDIFCEVIQGDGSNLAACVNATSLALADAGIPMKGIASAATCGVVDGKPIVDLTSREETDLLPRVTLATICGRDEVILVELQNRLHIDHLSTVMDAAKATCADVYECLAVVAQQHLKACAPILGN | not soluble
8 | MGSDKIHHHHHHMLSVAIPKAKPLLKQEKVATTAQKNQKEVIHYTAIGDSLTEGIGDLTNSGGFVPIVADDLKEHYNLNGVQTDNFGKNGDRSDQILKRIKEKPEIQKGLASADVITLTVGGNDLMKVISSNIFDLKVSSFNRPQKAYQRRVRRLLEEIREYNEKAPIYVLGIYNPFYLNFSEITEMQEIVDNWNQATEEMVQEQKRAYFIPINDLLYKGRGDEVGVTGGDSETTGSSASKEDLNNLLYEEDRFHPNNLGYQIMAGAVRDEMVKTEKEWITKSEGSE | not soluble
9 | MESRESSKDRLLILPSMGESYTEYVDSYLNLELLERGERETPIFLESLTRQLTQKIYELIKTKSLTADTLQQISDKYDGVVAENKLLFLQRQYYVDDEGNVRDGRNNDKIYCEPKHVYDMVMATHLMNKHLRGKTLHSFLFSHFANISHAIIDWVQQFCSKCNKKGKIKPLKEYKR | soluble
10 | GPGSMVTPEQAALIEGAFRSMDRDGTGLVRLEDIFRVFDDSRHPRVRDGELAPAATRDMLMHQFGATAQAHGGVSFDVFMRFHERMAEDAAVAKVNDKELFLTDTIIGVWRLGTLLQPTLIRPLFPVNVRPSGLYATQYMSLVWVDEVAGPGSFVVHVVRDVVRPIFSRGDLPPQLRGMFAYPTELAGMKIIEERLQIATQRWLDFVWEYEEGKHAAVPGIISARVDPDTLPQYLRDMIVEHDVAKAIPSLFFVPTSVAVNPMYKRSSEEYGYGVPEEVKRMSRWKDLTYSGQACGLIYHGRVGKFTRERLNAPVQDVASAMNI | not soluble
11 | MDYQERLKNLPPEVMTAFSESFIFLISNDKVQHFPARDLTQAEMIQRVKEKLGEAVTWSLWQGFVIAVNSEETCVAVLPKYYQLDGFENE | not soluble
12 | MEERILDRLAALDPDLMAYIRDFAYDTVYERPGLDLKTKELLASVLLVSLGSPDELKTHLRGALRAGATEQEVREALLLCVPYLGFPRTVAAFSQLQS | soluble
13 | MIQYYYTKKEWGVVMEKEELKILEELRRILSNKNEAIVILNNYFKGGVGKSKLSTMFAYLTDKLNLKVLMIDKDLQATLTKDLAKTFKVELPRVNFYEGLKNGNLASSIVHLTDNLDLIPGTFDLMLLPKLTRSWTFENESRLLATLLAPLKSDYDLIIIDTVPTPSVYTNNAIVASDYVMIPLQAEEESTNNIQNYISYLIDLQEQFNPGLDMIGFVPYLVDTDSATIKSNLEELYKQHKEDNLVFQNIIKRSNKVSTWSKNGITEHKGYDKKVLSMYKNVFFEMLERIIQLENEKE | soluble
14 | GMSISSKAKEILTQFTREVWSEGNIEASDKYIAPKYTVLHDPGDPWEGRELDVAGYKERVKTLRAAFPDQCFDIQGLFADGDAVVMTWLWTATHKEDIPGFPSTGKQIKMSGATVYYFDGNRLTGHWQITDRLGVYQQLRQAAAGA | soluble
15 | MGKKKFIENEDGTTEVQETESEAPKDKKEKKEYRLRTLGANIKTSKKSFKEQFFMNYEDGLKLIKKMRGKGKGGQLVQKVMPRHISLPYHMSGKAAMEEACDWIAQNTVGKYRKEYKGIVVAVGSVDLASAPRVISDQYAFHTDVAINQIVFIPKIGDQYEAKVKYVQEGLMVGVVMDMITIHIKQNDKTSEDQVAIDDKILVKYSGIRIKSSLCHLKGEYVKMIEKAEIKEEEEVEDEADEETDVKEKVKEEEDEDEDMEE | not soluble
16 | MGSDKIHHHHHHMSSMSARNPFRPTFGVSPTVLAGRDSLLQSFKLGLAEGPGSPFRALLISGSRGMGKTVLLNEFEDAAASQGWITLRAYPDNSMVDGLVNSAIPEALQNLDGPQSKRMLSGVAIPGIATVTAIADPTKKDPTPTLISRLRELATRLQKHGSGILITLDELQSANVDLLHVLATAVQDLLRDDFDIALVAAGLPEGIDRLLQHEGTTFIRRAERILLNPVNHEDSVEMFLYTAAYGYRHMTSEAAELAAQISKGYPYSMQLTGSLAWARSTLDNSDTIQAEQVDAVRDEVVRRMGMQVHEPSLHQVPDGELTILYAIAQLSKNGEMVSTGDIAHLMGVKPNALSMQRKQLLSRGLVEVPKYGFLNFTLPYMREHLLNSPHHRPIT | not soluble
17 | MSLQLRHNRTLLENLADRQTMALQQFVDGDIHFIGSAANFFRSSTSDDWVRFHTFAEETLKGSQSLIALQWLVKVEPPQAETFTARMQQRFPEFTLYTVPKTGEIKYGFGTDDQAKYVLSDIYPLNYDNRKLLGFYSERERFKRILADIVVNRRPNVSDKVRLLQDGIDKSIVKDGMLVYHPVFSSEDDRSLLGVMVGVVRLSTYFEKLVQISVMEQDLDMRVIDTGFDSEDSPVLYQSPMWRADDEPKIERKLVLPNRDWVLEFELHQPINHSEELEHHHHHH | soluble
18 | MSRRKAGSAPRRVEPAPAANPDDEMEMQDLVIELKPEPDAQPQQAPRLGPFSPKEVSSAGRFGGEPHHSPGPMPAGAALLALGPRNPWTLWTPLTPNYPDRQPWTDKHPDLLTCGRCLQTFPLEAITAFMDHKKLGCQLFRGPSRGQGSEREELKALSCLRCGKQFTVAWKLLRHAQWDHGLSIYQTESEAPEAPLLGLAEVAAAVSAVVGPAAEAKSPRASGSGLTRRSPTCPVCKKTLSSFSNLKVHMRSHTGERPYACDQCPYACAQSSKLNRHKKTHRQVPPQSPLMADTSQEQASAAPPEPAVHAAAPTSTLPCSGGEGAGAAATAGVQEPGAPGSGAQAGPGGDTWGAITTEQRTDPANSQKASPKKMPKSGGKSRGPGGSCEFCGKHFTNSSNLTVHRRSHTGERPYTCEFCNYACAQSSKLNRHRRMHGMTPGSTRFECPHCHVPFGLRATLDKHLRQKHPEAAGEA | not soluble
19 | MGSDKIHHHHHHMQDIKDLTAVLRSNTPIVVIETYEEYRVIELLKRVAMTLYQPLFTWSVTSGLSRVDKDMGSQKFNTEPAELLGQIKSTQQQGIYVLCDFHPFVQDAPRNVRLLKEIALEYDALKHTLVLVSHAFEIPPEIRRYCAHFRLSLPSRNQLENLIVEEIDKVRRQGLPLVADESAIARLADNLRGVTFDDARRLIHKAIVDDGAITHDDVERVNQAKFRLMDMDGVLRYEYDTSSFSDIAGLHNLKEWLKARAPELSPQSSAPPPKGILLLGVQGSGKSLAAKAVAGAWQRPLLRLDMAALYNKYIGETEKNLRQALELADLMSPCVLWVDEIEKGISGSSSDEGTSQRILGTLLTWMAERKSDVFLVATANDIQALPPELMRKGRMDEIFFVDLPDEEIRKAIFLIHCKKRGVDVTSMDLGLLSRASQGFSGAEIEQAVISAIYSAASRRQPVEQAIILEELSRTRPLSVVMREKIDSLRAWAKGRTMNAHLD | not soluble
20 | MRHPIPDYLASLVTELGAVNPGETAQYIPVLAEADPDRFGIALATPTGRLHCAGDADVEFTIQSASKPFTYAAALVDRGFAAVDRQVGLNPSGEAFNELSLEAESHRPDNAMINAGALAVHQLLVGPEASRKERLDRAVEIMSLLAGRRLSVDWETYESEMAVSDRNLSLAHMLRSYGVLQDSAEEIVAGYVAQCAVLVTVKDLAVMGACLATGGIHPMTGERMLPSIVARRVVSVMTSSGMYDAAGQWLADVGIPAKSGVAGGVLGALPGRVGIGVFSPRLDEVGNSARGVLACRRLSEDFRLHLMDGDSLGGTAVRFVEREGDRVFLHLQGVIRFGGAEAVLDALTDLRTGAEKPGTGWDAAVYPRWQEAAADRAALSAATGGGAVHEAAAAAARDENDGPIRTVVLNLARVDRIDDVGRRLIAEGVRRLQADGVRVEVEDPERILPLEEAGAH | soluble
